Target: recombinant full-length p21 (1-164 in SEQ ID NO: 23)
Sequence (chain, as listed by the source): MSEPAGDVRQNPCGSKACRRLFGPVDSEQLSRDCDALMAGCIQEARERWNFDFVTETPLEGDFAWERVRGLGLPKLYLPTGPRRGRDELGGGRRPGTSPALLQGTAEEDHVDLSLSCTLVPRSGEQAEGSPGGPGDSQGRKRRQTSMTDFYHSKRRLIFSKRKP

B1: Rho kinase fragment (aa 1-543, Upstate Biotechnology) (protein)
chain: MSRPPPTGKMPGAPETAPGDGAGASRQRKLEALIRDPRSPINVESLLDGLNSLVLDLDFPALRKNKNIDNFLNRYEKIVKKIKGLQMKAEDYDVVKVIGRGAFGEVQLVRHKASQKVYAMKLLSKFEMIKRSDSAFFWEERDIMAFANSPWVVQLFYAFQDDRYLYMVMEYMPGGDLVNLMSNYDVPEKWAKFYTAEVVLALDAIHSMGLIHRDVKPDNMLLDKHGHLKLADFGTCMKMDETGMVHCDTAVGTPDYISPEVLKSQGGDGFYGRECDWWSVGVFLYEMLVGDTPFYADSLVGTYSKIMDHKNSLCFPEDAEISKHAKNLICAFLTDREVRLGRNGVEEIRQHPFFKNDQWHWDNIRETAAPVVPELSSDIDSSNFDDIEDDKGDVETFPIPKAFVGNQLPFIGFTYYRENLLLSDSPSCRENDSIQSRKNEESQEIQKKLYTLEEHLSNEMQAKEELEQKCKSVNTRLEKTAKELEEEITLRKSVESALRQLEREKALLQHKNAEYQRKADHEADKKRNLENDVNSLKDQLEDL
- Rho-kinase activity toward S6 kinase substrate peptide ([γ-32P] ATP, scintillation counting): the estimated IC50 value was 1.43 nM

Reference: patent US20070054848
